The values that follow come from US20070020327A1.

Assay [1] addresses HLA-A*6802 (human). Nature of the assay: competitive inhibition of 125I-labelled standard peptide binding to purified HLA.
Assay [2] deals with HLA-A*0201 (human). The description is as above.
Assay [3] has as its target HLA-A*6802 (human). Nature of the assay: competition with 125I-labeled probe peptide for purified HLA, gel filtration. Background: Size exclusion chromatography separates by hydrodynamic size, large species first.
Assay [4] concerns the target HLA-A*0206 (human). The description is as above.
In assay [5] the target is HLA-A*0202 (human). The assay is described as above.
Assay [6] concerns the target HLA-A*0203 (human). The assay is described as above.
The target of assay [7] is HLA-A*0206 (human). Nature of the assay: competition for purified HLA with 125I-labelled standard peptide 941.01 [..] as competitor, gel filtration. The following applies: scale: ratio.
The target of assay [8] is HLA-A*0203 (human). Described as above. The following applies: scale: ratio.
Assay [9] addresses HLA-A*0201 (human). Described as above. The following applies: scale: ratio.
For assay [10], the target named is HLA-A*0206 (human). Nature of the assay: competition with 125I-labelled standard peptide for purified HLA, gel filtration; ratio = IC50 standard / IC50 test peptide. The following applies: remark: other sources report otherwise.
Assay [11] deals with HLA-A*0203 (human). The assay is described as above. The following applies: remark: other sources report otherwise.
For assay [12], the target named is HLA-A*0206 (human). Nature of the assay: competitive inhibition of 125I-labelled standard peptide binding to purified HLA, gel filtration; ratio = IC50 standard / IC50 test peptide.
Assay [13] addresses HLA-A*0203 (human). The description is as above.
For assay [14], the target named is HLA-A*0201 (human). The description is as above.
For assay [15], the target named is HLA-A*1101 (human). Nature of the assay: competition with 125I-labelled standard peptide for purified HLA-A*1101, gel filtration; standard 940.06 [..] (6.0 nM).
Assay [16] addresses HLA-A*0301 (purified HLA class I molecule) (human). Nature of the assay: competition binding assay with purified HLA-A*0301; inhibition of 125I-labelled standard peptide 941.12 ([..], 11 nM), gel filtration.
Assay [17] deals with HLA-A*0206 (human). Nature of the assay: competitive inhibition of 125I-labelled standard peptide binding to purified HLA.
The target in assay [18] is HLA-A*0202 (human). The description is as above.
Assay [19] concerns the target HLA-A*0203 (human). The description is as above.
The target of assay [20] is HLA-A*6802 (human). Nature of the assay: competition with 125I-labelled standard peptide 1072.34 for purified HLA-A*6802, gel filtration.
For assay [21], the target named is HLA-A*0201 (human). Nature of the assay: competition with 125I-labelled standard peptide 941.01 for purified HLA-A*0201, gel filtration.
Assay [22] addresses HLA-A*0206 (human). Nature of the assay: competition with 125I-labelled standard peptide 941.01 for purified HLA-A*0206, gel filtration.
Assay [23] has as its target HLA-A*0202 (human). Nature of the assay: competition with 125I-labelled standard peptide 941.01 for purified HLA-A*0202, gel filtration.
The target in assay [24] is HLA-A*0202 (human). Nature of the assay: competition for purified HLA with 125I-labelled standard peptide 941.01 [..] as competitor, gel filtration. The following applies: scale: ratio.
In assay [25] the target is HLA-A*6802 (human). Nature of the assay: inhibition of 125I probe peptide binding to purified HLA, gel filtration; ratio = IC50 standard/IC50 test. The following applies: remark: other sources report otherwise.
For assay [26], the target named is HLA-A*0202 (human). Nature of the assay: competition binding to purified HLA, 125I-labelled standard peptide, gel filtration; ratio = IC50 standard / IC50 test peptide.
Assay [27] has as its target HLA-A*0201 (human). Nature of the assay: competition with 125I-labeled probe peptide for purified HLA, gel filtration.
Assay [28] deals with HLA-A*0201 (purified HLA class I molecule) (human). Nature of the assay: competition with 125I-labelled standard peptide for purified HLA, gel filtration.
Assay [29] has as its target HLA-A*0206 (purified HLA class I molecule) (human). The description is as above.
In another assay the target is HLA-A*0101 (human). Nature of the assay: competition with 125I-labelled standard peptide for purified HLA-A*0101, gel filtration.
Assay [30] concerns the target HLA-A*1101 (human). Nature of the assay: competition with 125I-labelled standard peptide for purified HLA-A*1101, gel filtration; ratio to the A*1101 standard peptide 940.06 [..] (6.0 nM).
Assay [31] concerns the target HLA-A*0301 (human). Nature of the assay: competition with 125I-labelled standard peptide for purified HLA-A*0301, gel filtration.
The target in assay [32] is HLA-A*0202 (purified HLA class I molecule) (human). Nature of the assay: competition with 125I-labelled standard peptide for purified HLA, gel filtration. The following applies: remark: other sources report otherwise.
Assay [33] has as its target HLA-A*1101 (human). The description is as above. The following applies: scale: ratio.
Assay [34] deals with HLA-A*0301 (human). Described as above. The following applies: scale: ratio.
The mark [35] stands for this setting: remark: other sources report otherwise.

B1: Peptide 63.0014, … (PSA.117) (peptide)
peptide: LMLLRLSEPA
modifications: not checked
Take B1: the IC50 was found to be 5000 nM in the assay with HLA-A*6802 (human) [1] (setting [35]) and 200 nM in the assay with HLA-A*0201 (human) [2] (setting [35]).

B2: Peptide 1126.01 … (PSM.663) (peptide)
peptide: MMNDQLMFL
modifications: not checked
Turning to B2, the IC50 with HLA-A*6802 (human) [3] was found to be 195 nM; in the assay with HLA-A*0206 (human) [4], 7.6 nM; with HLA-A*0202 (human) [5] it was 0.8 nM; in the assay with HLA-A*0203 (human) [6], 1.7 nM.

B3: … (Kallikrein position 177, 9-mer) (peptide)
peptide: HLLSNDMCA
modifications: not checked
Consider B3, for which the binding affinity ratio worked out at 0.0009 with HLA-A*0206 (human) [7], 0.0005 with HLA-A*0203 (human) [8] and 0.002 in the assay with HLA-A*0201 (human) [9].

B4: Kallikrein (hK2) peptide …, position 39, 10 amino acids (peptide)
peptide: QVAVYSHGWA
modifications: not checked
B4: the binding affinity ratio (ratio to standard peptide) worked out at 0.0005 with HLA-A*0206 (human) [10] and 0.02 with HLA-A*0203 (human) [11].

B5: … (Kallikrein, position 138) (peptide)
peptide: VLGLPTQEPAL
modifications: not checked
For B5, the binding affinity ratio was 0.0003 with HLA-A*0206 (human) [12], 0.0003 with HLA-A*0203 (human) [13] and -0.0001 in the assay with HLA-A*0201 (human) [14].

B6: PSA 43 … (peptide)
peptide: RAVCGGVLVH
modifications: not checked
For the molecule B6, in the assay with HLA-A*1101 (human) [15] (setting [35]), the binding affinity ratio (IC50 of standard peptide / IC50 of test peptide) turned out to be 0.031.

B7: PAP 200 … (peptide)
peptide: QDLFGIWSK
modifications: not checked
As for B7, the binding affinity ratio (IC50 of standard peptide / IC50 of test peptide) in the assay with HLA-A*1101 (human) [15] was 0.0008.

B8: PSM peptide … (position 114, 9 amino acids) (peptide)
peptide: DVLLSYPNK
modifications: not checked
As to B8, the binding affinity ratio (IC50 of standard peptide / IC50 of test peptide) (ratio to standard peptide) in assay [16] was determined as 0.0006.

B9: Peptide 1418.55, … (PSA.213.V10) (peptide)
peptide: LVCNGVLQGV
modifications: not checked
Turning to B9, the half-maximal inhibitory concentration (IC50) stood at 3.5 nM with HLA-A*6802 (human) [1]; 5.6 nM with HLA-A*0206 (human) [17]; 2.9 nM with HLA-A*0202 (human) [18]; 12 nM with HLA-A*0203 (human) [19]; 10 nM in the assay with HLA-A*0201 (human) [2].

B10: RLSEPAKI (Kallikrein, position 125) (peptide)
peptide: RLSEPAKI
modifications: not checked
With B10, the binding affinity ratio (IC50 of standard peptide / IC50 of test peptide) was -0.0001 with HLA-A*6802 (human) [20], -0.0001 with HLA-A*0201 (human) [21], -0.0001 with HLA-A*0206 (human) [22] and 0.0005 with HLA-A*0202 (human) [23].

B11: IALSVGCT (Kallikrein position 8, 8-mer) (peptide)
peptide: IALSVGCT
modifications: not checked
With B11, the binding affinity ratio was -0.0001 with HLA-A*0206 (human) [7], -0.0002 with HLA-A*0202 (human) [24], -0.0001 with HLA-A*0203 (human) [8] and 0.0001 with HLA-A*0201 (human) [9].

B12: … (Kallikrein, position 9) (peptide)
peptide: ALSVGCTGA
modifications: not checked
In the case of B12, in the assay with HLA-A*6802 (human) [25], the binding affinity ratio is -0.0001.

B13: PSM peptide … (position 641, 9 amino acids) (peptide)
peptide: EIASKFSER
modifications: not checked
For B13, in [16], the binding affinity ratio (IC50 of standard peptide / IC50 of test peptide) (ratio to standard peptide) was 0.0006.

B14: DTGQRVPV (Kallikrein, position 85, 8 amino acids) (peptide)
peptide: DTGQRVPV
modifications: not checked
As for B14, the binding affinity ratio in the assay with HLA-A*0202 (human) [26] amounted to 0.0001.

B15: Peptide 1418.30 … (PSM.711.T2) (peptide)
peptide: ATFDIESKV
modifications: not checked
For the molecule B15, the IC50 with HLA-A*6802 (human) [3] came out at 258 nM; with HLA-A*0206 (human) [4] it was 82 nM; with HLA-A*0202 (human) [5] it was 27 nM; with HLA-A*0203 (human) [6], 44 nM; with HLA-A*0201 (human) [27], 238 nM.

B16: Kallikrein (hK2) peptide NLFEPEDT (position 79, 8 amino acids) (peptide)
peptide: NLFEPEDT
modifications: not checked
For the molecule B16, the binding affinity ratio (IC50 of standard peptide / IC50 of test peptide) in assay [28] was 0.0002; in assay [29], -0.0001.

B17: PSM 721 … (peptide)
peptide: PSKAWGEVKR
modifications: not checked
Turning to B17, the binding affinity ratio (IC50 of standard peptide / IC50 of test peptide) in the assay with HLA-A*1101 (human) [15] worked out at 0.0002.

B18: … (PAP, position 332) (peptide)
peptide: RNETQHEPY
modifications: not checked
With B18, the binding affinity ratio (IC50 of standard peptide / IC50 of test peptide) with HLA-A*0101 (human) and with HLA-A*1101 (human) [30] was 0.0002 in each case.

B19: … (PAP, position 242) (peptide)
peptide: SLLSLYGIH
modifications: not checked
For the molecule B19, the binding affinity ratio (IC50 of standard peptide / IC50 of test peptide) with HLA-A*0301 (human) [31] came out at 0.0006; with HLA-A*1101 (human) [30], 0.0002.

B20: … (Kallikrein position 8, 11-mer) (peptide)
peptide: IALSVGCTGAV
modifications: not checked
Regarding B20, the binding affinity ratio in the assay with HLA-A*0206 (human) [7] (setting [35]) came to 0.01; with HLA-A*0202 (human) [24] (setting [35]), 0.0032; with HLA-A*0203 (human) [8] (setting [35]), 0.027; with HLA-A*0201 (human) [9] (setting [35]) it was 0.0009.

B21: PSM peptide … (position 26, 9 amino acids) (peptide)
peptide: LVLAGGFFL
modifications: not checked
As to B21, the binding affinity ratio (IC50 of standard peptide / IC50 of test peptide) in assay [32] is 0.003.

B22: VLTAAHCL (Kallikrein, position 60) (peptide)
peptide: VLTAAHCL
modifications: not checked
As to B22, the binding affinity ratio came out at 0.0001 with HLA-A*0206 (human) [12], 0.0001 in the assay with HLA-A*0203 (human) [13] and 0.0002 with HLA-A*0201 (human) [14].

B23: DAVKVMDL (PSA, position 130, 8 amino acids) (peptide)
peptide: DAVKVMDL
modifications: not checked
In the case of B23, the binding affinity ratio in the assay with HLA-A*0202 (human) [26] turned out to be 0.0003.

B24: Peptide 1389.20 … (PSM.27.V9) (peptide)
peptide: VLAGGFFLV
modifications: not checked
B24: the half-maximal inhibitory concentration (IC50) was 57 nM with HLA-A*0206 (human) [4], 0.4 nM with HLA-A*0202 (human) [5], 5 nM with HLA-A*0203 (human) [6] and 26 nM with HLA-A*0201 (human) [27].

B25: Peptide 60.0217, … (PSA.5.V9) (peptide)
peptide: TLSVTWIGV
modifications: not checked
For the molecule B25, the IC50 with HLA-A*6802 (human) [1] (setting [35]) came to 229 nM; with HLA-A*0206 (human) [17] (setting [35]), 712 nM; with HLA-A*0202 (human) [18] (setting [35]), 4.9 nM; in the assay with HLA-A*0203 (human) [19] (setting [35]), 40 nM.

B26: PAP peptide … (position 51, 9 amino acids) (peptide)
peptide: DTFPTDPIK
modifications: not checked
Turning to B26, in [16], the binding affinity ratio (IC50 of standard peptide / IC50 of test peptide) (ratio to standard peptide) was determined as 0.0001.

B27: … (PSM, position 492) (peptide)
peptide: SLYESWTKK
modifications: not checked
Regarding B27, the binding affinity ratio was 2 with HLA-A*1101 (human) [33] and 1 in the assay with HLA-A*0301 (human) [34]. Also, the binding affinity ratio (IC50 of standard peptide / IC50 of test peptide) is 1 in the assay with HLA-A*0301 (human) [31] and 2 with HLA-A*1101 (human) [30].

For orientation: IC50 means the concentration needed to halve the response being measured.
